# Laboratory results reported in patent US20210130804.
# Columns and labels:
# Assay in all cases: cleavage_in_vitro
# [1] = test system: T1, OMNI-53 TXTL (Clostridium sp. AF02-29); settings: PAM NRHR general, NAWA specific
# T1 sequence: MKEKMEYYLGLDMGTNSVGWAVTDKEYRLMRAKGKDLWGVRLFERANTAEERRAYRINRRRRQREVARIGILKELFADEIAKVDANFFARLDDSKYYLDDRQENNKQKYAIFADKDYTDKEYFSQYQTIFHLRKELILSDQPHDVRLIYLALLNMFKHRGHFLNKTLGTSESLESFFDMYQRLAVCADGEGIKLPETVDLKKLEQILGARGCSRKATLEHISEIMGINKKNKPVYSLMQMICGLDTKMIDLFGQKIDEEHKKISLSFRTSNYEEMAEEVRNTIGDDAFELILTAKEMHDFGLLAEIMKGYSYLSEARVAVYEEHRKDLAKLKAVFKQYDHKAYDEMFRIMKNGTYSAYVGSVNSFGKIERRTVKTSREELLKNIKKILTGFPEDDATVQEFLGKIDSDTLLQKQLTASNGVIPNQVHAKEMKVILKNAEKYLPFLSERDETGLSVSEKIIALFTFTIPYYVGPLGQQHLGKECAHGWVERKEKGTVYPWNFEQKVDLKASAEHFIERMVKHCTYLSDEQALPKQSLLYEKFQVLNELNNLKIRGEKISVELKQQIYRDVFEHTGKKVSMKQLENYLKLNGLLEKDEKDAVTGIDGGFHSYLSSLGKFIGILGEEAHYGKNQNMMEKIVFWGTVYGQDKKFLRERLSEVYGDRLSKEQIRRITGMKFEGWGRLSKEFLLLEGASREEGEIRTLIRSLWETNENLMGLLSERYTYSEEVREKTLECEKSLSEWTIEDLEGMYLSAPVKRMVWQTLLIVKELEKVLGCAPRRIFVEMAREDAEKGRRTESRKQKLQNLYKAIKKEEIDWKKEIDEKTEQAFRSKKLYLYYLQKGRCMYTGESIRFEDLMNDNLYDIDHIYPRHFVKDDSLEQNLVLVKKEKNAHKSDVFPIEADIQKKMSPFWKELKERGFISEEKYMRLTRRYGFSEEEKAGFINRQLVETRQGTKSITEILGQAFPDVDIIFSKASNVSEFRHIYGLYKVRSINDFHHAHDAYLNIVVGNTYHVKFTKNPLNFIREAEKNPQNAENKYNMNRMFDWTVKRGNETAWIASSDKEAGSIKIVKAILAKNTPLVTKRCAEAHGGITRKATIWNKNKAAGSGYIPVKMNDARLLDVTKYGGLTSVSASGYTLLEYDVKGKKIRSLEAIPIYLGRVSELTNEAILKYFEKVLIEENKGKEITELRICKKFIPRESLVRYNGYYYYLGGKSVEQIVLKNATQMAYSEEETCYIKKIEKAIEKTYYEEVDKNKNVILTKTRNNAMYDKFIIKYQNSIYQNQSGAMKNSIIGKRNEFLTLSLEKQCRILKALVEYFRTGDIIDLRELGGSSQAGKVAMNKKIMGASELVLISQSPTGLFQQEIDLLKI
# [2] = test system: T2, OMNI-50 TXTL (Ezakiella peruensis strain M6.X2); settings: PAM NGG
# T2 sequence: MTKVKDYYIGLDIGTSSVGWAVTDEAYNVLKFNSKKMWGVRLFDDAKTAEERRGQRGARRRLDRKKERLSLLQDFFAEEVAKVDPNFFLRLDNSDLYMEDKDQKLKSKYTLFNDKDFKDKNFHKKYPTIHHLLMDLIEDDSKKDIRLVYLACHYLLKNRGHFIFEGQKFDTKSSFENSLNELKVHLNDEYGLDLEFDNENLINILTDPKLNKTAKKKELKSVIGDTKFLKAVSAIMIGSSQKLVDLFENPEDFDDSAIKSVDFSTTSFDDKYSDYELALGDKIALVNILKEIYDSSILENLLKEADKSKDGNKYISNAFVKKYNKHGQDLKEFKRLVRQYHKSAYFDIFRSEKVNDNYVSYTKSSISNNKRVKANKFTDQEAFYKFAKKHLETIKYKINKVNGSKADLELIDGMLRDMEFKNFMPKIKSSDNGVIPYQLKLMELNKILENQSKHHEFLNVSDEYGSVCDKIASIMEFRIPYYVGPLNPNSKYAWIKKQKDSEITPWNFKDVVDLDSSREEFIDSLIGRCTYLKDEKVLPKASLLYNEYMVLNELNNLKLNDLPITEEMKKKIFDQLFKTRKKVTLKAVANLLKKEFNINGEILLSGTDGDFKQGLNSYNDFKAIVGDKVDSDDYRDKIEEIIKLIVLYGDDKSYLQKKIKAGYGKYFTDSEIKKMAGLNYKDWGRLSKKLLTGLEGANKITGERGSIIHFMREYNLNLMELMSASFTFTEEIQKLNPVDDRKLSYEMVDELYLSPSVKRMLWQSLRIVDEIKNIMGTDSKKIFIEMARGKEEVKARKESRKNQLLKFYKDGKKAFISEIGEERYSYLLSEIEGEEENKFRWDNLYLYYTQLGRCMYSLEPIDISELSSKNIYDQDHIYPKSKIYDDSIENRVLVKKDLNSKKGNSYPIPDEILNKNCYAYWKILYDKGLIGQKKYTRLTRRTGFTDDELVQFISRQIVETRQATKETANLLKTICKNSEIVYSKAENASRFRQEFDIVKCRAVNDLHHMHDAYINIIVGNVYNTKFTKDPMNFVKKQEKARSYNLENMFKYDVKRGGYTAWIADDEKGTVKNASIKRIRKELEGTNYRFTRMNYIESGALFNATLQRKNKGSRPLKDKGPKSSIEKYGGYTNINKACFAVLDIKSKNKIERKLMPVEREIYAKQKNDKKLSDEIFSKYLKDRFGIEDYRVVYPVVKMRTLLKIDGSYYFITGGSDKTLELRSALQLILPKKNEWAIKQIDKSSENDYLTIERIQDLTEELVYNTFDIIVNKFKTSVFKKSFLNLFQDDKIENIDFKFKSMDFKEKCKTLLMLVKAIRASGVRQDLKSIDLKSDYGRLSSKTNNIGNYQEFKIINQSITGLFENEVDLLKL
# [3] = test system: T3, OMNI-39 TXTL (Butyrivibrio sp. AC2005); settings: PAM NNGHAD general, NNGYAA specific
# T3 sequence: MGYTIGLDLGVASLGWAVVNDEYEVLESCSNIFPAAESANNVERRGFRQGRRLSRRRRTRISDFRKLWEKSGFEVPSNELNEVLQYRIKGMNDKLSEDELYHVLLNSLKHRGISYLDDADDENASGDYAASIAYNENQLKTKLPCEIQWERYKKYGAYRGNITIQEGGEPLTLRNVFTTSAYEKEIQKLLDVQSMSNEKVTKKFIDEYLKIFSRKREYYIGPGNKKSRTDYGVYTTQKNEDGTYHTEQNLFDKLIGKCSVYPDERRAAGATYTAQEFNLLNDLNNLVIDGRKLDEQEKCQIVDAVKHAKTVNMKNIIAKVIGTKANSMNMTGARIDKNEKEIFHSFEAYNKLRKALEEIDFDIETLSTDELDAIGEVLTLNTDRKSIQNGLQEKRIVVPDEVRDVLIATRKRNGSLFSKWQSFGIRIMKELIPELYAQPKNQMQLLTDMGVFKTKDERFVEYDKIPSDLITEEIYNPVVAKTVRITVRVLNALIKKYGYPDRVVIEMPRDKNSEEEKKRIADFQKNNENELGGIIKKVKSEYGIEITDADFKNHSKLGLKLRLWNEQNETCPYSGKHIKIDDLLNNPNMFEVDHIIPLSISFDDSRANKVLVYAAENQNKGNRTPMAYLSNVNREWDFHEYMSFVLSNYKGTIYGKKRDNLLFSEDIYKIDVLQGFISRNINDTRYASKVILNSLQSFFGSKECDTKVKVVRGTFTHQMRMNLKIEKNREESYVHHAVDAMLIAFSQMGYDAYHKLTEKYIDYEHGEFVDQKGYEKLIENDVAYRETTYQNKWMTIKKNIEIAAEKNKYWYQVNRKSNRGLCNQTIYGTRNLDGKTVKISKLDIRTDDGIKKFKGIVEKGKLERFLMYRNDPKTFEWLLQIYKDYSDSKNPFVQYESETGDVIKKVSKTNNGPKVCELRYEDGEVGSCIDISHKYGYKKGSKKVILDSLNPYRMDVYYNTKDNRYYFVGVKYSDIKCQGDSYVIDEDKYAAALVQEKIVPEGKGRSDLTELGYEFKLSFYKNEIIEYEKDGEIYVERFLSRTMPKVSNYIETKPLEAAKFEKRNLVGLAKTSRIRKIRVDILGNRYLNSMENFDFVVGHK
# [4] = test system: T4, OMNI-40 TXTL (Aliiarcobacter faecis); settings: PAM NYGRV
# T4 sequence: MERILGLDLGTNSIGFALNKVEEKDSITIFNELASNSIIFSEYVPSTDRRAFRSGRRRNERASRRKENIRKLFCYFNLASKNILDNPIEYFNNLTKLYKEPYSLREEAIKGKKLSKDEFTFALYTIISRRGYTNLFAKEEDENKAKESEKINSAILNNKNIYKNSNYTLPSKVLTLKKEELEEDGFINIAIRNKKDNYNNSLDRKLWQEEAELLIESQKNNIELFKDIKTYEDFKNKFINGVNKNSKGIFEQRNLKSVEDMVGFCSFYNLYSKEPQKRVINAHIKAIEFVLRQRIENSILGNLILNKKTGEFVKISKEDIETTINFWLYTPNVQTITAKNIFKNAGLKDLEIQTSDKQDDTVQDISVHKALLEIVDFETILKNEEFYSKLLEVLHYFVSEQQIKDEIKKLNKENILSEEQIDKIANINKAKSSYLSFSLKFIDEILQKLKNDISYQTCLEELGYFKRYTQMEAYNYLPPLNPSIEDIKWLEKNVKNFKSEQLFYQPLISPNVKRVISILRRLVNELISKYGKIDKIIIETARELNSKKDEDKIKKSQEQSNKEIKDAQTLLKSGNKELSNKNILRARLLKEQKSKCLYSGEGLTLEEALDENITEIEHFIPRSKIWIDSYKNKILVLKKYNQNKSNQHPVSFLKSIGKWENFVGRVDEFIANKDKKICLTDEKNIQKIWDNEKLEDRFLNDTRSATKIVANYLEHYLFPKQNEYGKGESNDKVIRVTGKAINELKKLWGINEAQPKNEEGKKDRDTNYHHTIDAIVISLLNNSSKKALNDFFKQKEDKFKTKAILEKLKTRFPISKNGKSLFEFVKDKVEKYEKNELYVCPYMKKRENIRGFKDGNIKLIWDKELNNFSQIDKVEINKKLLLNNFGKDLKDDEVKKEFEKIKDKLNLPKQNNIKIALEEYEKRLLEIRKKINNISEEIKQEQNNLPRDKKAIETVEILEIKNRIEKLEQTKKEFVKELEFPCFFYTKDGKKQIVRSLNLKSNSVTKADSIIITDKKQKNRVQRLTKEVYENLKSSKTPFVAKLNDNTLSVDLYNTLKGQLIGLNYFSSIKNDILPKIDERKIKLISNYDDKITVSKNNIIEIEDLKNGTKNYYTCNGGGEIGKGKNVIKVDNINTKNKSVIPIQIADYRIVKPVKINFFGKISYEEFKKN
sequence,measurement,setting,value
GGAAGAGCAGAGCCUUGGUCUCGUUUGAGAACCAUGUAAGAAAUUACAUGGUGAGUGCAAAUAAGGAUUAUCCGAAAUUGUAUGCCCGCAUUGUGCGGCAAUAAAAAGGCUCGAAAGAGUCUUUUU / GGAAGAGCAGAGCCTTGGTCTCNNNNNNNN / NNNNNNNNGAGACCAAGGCTCTGCTCTTCC [T2 sgRNA V2 OMNI-53 ; T2 protospacer 8N PAM library],activity (1-depletion score),[1],0.97
GGAAGAGCAGAGCCUUGGUCUCGUUUGAGAGUUAUGUAAGAAAUUACAUGACGAGUUCAAAUAAAAAUUUAUUCAAACCGCCUAUUUAUAGGCCGCAGAUGUUCUGCAUUAUGCUUGCUAUUGCAAGCUUUUUU / GGAAGAGCAGAGCCTTGGTCTCNNNNNNNN / NNNNNNNNGAGACCAAGGCTCTGCTCTTCC [T2 sgRNA V2 OMNI-50 ; T2 protospacer 8N PAM library],activity (1-depletion score),[2],0.98
GGAAGAGCAGAGCCUUGGUCUCGUUUUAGUACCUAGAGAAAGAAAUUUCUUUAGACCUACUAAAAUAAGGCUUUAUGCCGAGAUUAAAGGAUGCCGACGGGCAUCCUUUUUU / GGAAGAGCAGAGCCTTGGTCTCNNNNNNNN / NNNNNNNNGAGACCAAGGCTCTGCTCTTCC [T2 sgRNA V2 OMNI-39 ; T2 protospacer 8N PAM library],activity (1-depletion score),[3],0.95
GGAAGAGCAGAGCCUUGGUCUCGUUUUGUUACCAUAUGAUUGAAAAUUUAUAUGACCUAACAAAACAAGGGUUUAUCCCGGACUCGGCUCUUCGGAGCCUUUUU / GGAAGAGCAGAGCCTTGGTCTCNNNNNNNN / NNNNNNNNGAGACCAAGGCTCTGCTCTTCC [T2 sgRNA V2 OMNI-40 ; T2 protospacer 8N PAM library],activity (1-depletion score),[4],0.97
